For assay [1], the target named is EVA-4 (UniProt P0C8E9). As to the kind of experiment: not stated; Kd of EVA-4 for human chemokines, three readings (source data of Supplementary Fig. 7); method and conditions not told for EVA-4.
Assay [2] has as its target EVA-A(1-98) (A. americanum). As to the kind of experiment: SPR.
The target of assay [3] is EVA-A(21-102) (A. americanum). The assay is described as follows: SPR.
The target in assay [4] is EVA-A(C8) (A. americanum). The assay is described as follows: SPR.
The target of assay [5] is EVA-A(C8) (Amblyomma americanum). The assay is described as follows: SPR.
Assay [6] concerns the target EVA-A(DC) (Amblyomma americanum). The assay is described as follows: SPR.
The target of assay [7] is EVA-A(DN) (Amblyomma americanum). As to the kind of experiment: SPR.
Assay [8] addresses EVA-A(L39P) (A. americanum). The assay is described as follows: SPR.
Assay [9] has as its target EVA-A(L39P) (Amblyomma americanum). The assay is described as follows: SPR.
The target in assay [10] is EVA-A(Y44A) (A. americanum). As to the kind of experiment: SPR.
The target in assay [11] is EVA-A(Y44A) (Amblyomma americanum). As to the kind of experiment: SPR.

Where “and” joins values, the source holds several entries; their conditions need not be identical. Equal entries are not always repeated. A value given as a limit tells only on which side of the number the result lay.

Chain of CCL13, Q99616 17-98 (ligand; other documents disagree on this pair) (Q99616 17-98): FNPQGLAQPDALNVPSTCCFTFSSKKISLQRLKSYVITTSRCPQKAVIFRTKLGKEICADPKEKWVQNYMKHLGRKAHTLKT
Chain of CCL26 (Q9Y258 24-94): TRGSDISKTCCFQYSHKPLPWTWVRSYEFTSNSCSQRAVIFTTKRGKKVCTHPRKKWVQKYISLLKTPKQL
Chain of CCL24 (O00175 27-119): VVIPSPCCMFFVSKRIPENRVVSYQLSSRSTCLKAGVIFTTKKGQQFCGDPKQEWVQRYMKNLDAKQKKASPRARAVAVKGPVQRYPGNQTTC

Take “CCL13, Q99616 17-98 (ligand; other documents disagree on this pair)”: the equilibrium dissociation constant (Kd) in assay [1] is 258 nM and 234 nM and 267 nM.

“CCL16 (from UniProt O15467 24-120) (ligand)”: the Kd in [2] is below 0.1 nM; in assay [3], 0.22 nM; in [4], 1.9 nM; in assay [5], 1.95 nM and 1.84 nM; in assay [6], 0.000499 nM and 0.00352 nM and 0.00269 nM; in assay [7] it was 0.223 nM and 0.225 nM and 0.22 nM. Further, the Kd in assay [8] was 0.17 nM; in assay [9], 0.188 nM and 0.138 nM; in assay [10], 0.2 nM; in assay [11], 0.181 nM and 0.268 nM and 0.148 nM; in assay [1], 2.31 nM and 4.95 nM and 5 nM. The koff in assay [2] is below 0.0001 s⁻¹; in assay [3], 0.00019 s⁻¹; in [4] it was 0.00075 s⁻¹; in assay [5], 0.000666 s⁻¹ and 0.000831 s⁻¹; in assay [7], 0.000191 s⁻¹ and 0.000182 s⁻¹ and 0.000181 s⁻¹; in [8], 0.00016 s⁻¹. The koff in assay [9] was 0.000226 s⁻¹ and 0.000159 s⁻¹; in [10], 0.00013 s⁻¹; in assay [11], 0.0001 s⁻¹ and 0.000143 s⁻¹ and 0.000134 s⁻¹. Moreover, the kon in [2] is 258000 M⁻¹ s⁻¹; in assay [3], 831000 M⁻¹ s⁻¹; in assay [4], 396000 M⁻¹ s⁻¹; in assay [5], 341000 M⁻¹ s⁻¹ and 451000 M⁻¹ s⁻¹; in assay [6], 256000 M⁻¹ s⁻¹ and 253000 M⁻¹ s⁻¹ and 265000 M⁻¹ s⁻¹; in assay [7], 858000 M⁻¹ s⁻¹ and 809000 M⁻¹ s⁻¹ and 826000 M⁻¹ s⁻¹. Also, the kon was 1.18e+06 M⁻¹ s⁻¹ in assay [8]; 1.2e+06 M⁻¹ s⁻¹ and 1.15e+06 M⁻¹ s⁻¹ in assay [9]; 664000 M⁻¹ s⁻¹ in assay [10]; 552000 M⁻¹ s⁻¹ and 534000 M⁻¹ s⁻¹ and 906000 M⁻¹ s⁻¹ in assay [11].

Regarding CCL23 (ligand), the Kd in assay [5] is 13 nM and 34.4 nM and 13.6 nM; in [6], 0.105 nM and 0.44 nM and 0.794 nM; in [7], 0.168 nM and 0.972 nM and 0.384 nM; in [9], 1.15 nM and 0.794 nM and 1.49 nM; in assay [11], 15.2 nM and 26.4 nM and 14.7 nM; in [1] it was 7.43 nM and 7.41 nM and 7.39 nM. Further, the koff in assay [5] was 0.00116 s⁻¹ and 0.00157 s⁻¹ and 0.0012 s⁻¹; in [9], 0.000123 s⁻¹ and 0.00016 s⁻¹ and 0.000168 s⁻¹; in assay [11], 0.00168 s⁻¹ and 0.00185 s⁻¹ and 0.00176 s⁻¹. The kon is 89700 M⁻¹ s⁻¹ and 45800 M⁻¹ s⁻¹ and 87600 M⁻¹ s⁻¹ in [5]; 144000 M⁻¹ s⁻¹ and 85600 M⁻¹ s⁻¹ and 201000 M⁻¹ s⁻¹ in [6]; 53100 M⁻¹ s⁻¹ and 56200 M⁻¹ s⁻¹ and 152000 M⁻¹ s⁻¹ in assay [7]; 107000 M⁻¹ s⁻¹ and 201000 M⁻¹ s⁻¹ and 113000 M⁻¹ s⁻¹ in [9]; 111000 M⁻¹ s⁻¹ and 70100 M⁻¹ s⁻¹ and 120000 M⁻¹ s⁻¹ in assay [11].

As for “CCL24 (from UniProt O00175 27-119) (ligand)”, the Kd in [2] was 28.1 nM; in assay [3], 19.9 nM; in assay [4], 447 nM; in [5] it was 697 nM and 394 nM and 252 nM; in assay [6], 23.6 nM and 30.9 nM and 29.7 nM; in [7], 19.3 nM and 20.8 nM and 19.7 nM. Besides, the Kd in [8] was 9.58 nM; in [9] it was 9.33 nM and 9.02 nM and 10.4 nM; in assay [10], 68.6 nM; in assay [11] it was 46.6 nM and 88.7 nM and 70.7 nM. For the same substance, the koff in assay [2] is 0.00111 s⁻¹; in assay [3] it was 0.00091 s⁻¹; in [4], 0.00869 s⁻¹; in [6], 0.00111 s⁻¹ and 0.000885 s⁻¹ and 0.000951 s⁻¹; in [7], 0.000922 s⁻¹ and 0.00125 s⁻¹ and 0.000564 s⁻¹; in assay [8] it was 0.00121 s⁻¹. Moreover, the koff in assay [9] was 0.000856 s⁻¹ and 0.0013 s⁻¹ and 0.00101 s⁻¹; in [10], 0.00179 s⁻¹; in assay [11] it was 0.00131 s⁻¹ and 0.0022 s⁻¹ and 0.00184 s⁻¹. Further, the kon in assay [2] is 36000 M⁻¹ s⁻¹; in [3], 46000 M⁻¹ s⁻¹; in [4] it was 18000 M⁻¹ s⁻¹; in assay [5], 23800 M⁻¹ s⁻¹ and 14800 M⁻¹ s⁻¹ and 14400 M⁻¹ s⁻¹; in [6] it was 47000 M⁻¹ s⁻¹ and 28600 M⁻¹ s⁻¹ and 32100 M⁻¹ s⁻¹; in assay [7] it was 47700 M⁻¹ s⁻¹ and 60300 M⁻¹ s⁻¹ and 28700 M⁻¹ s⁻¹. Besides, the kon in assay [8] is 111000 M⁻¹ s⁻¹; in assay [9], 91800 M⁻¹ s⁻¹ and 144000 M⁻¹ s⁻¹ and 96500 M⁻¹ s⁻¹; in [10], 26000 M⁻¹ s⁻¹; in assay [11], 28200 M⁻¹ s⁻¹ and 24800 M⁻¹ s⁻¹ and 26000 M⁻¹ s⁻¹.

For the substance “CCL26 (from UniProt Q9Y258 24-94) (ligand)”, the Kd in assay [2] was 1.89 nM; in [3] it was 9.24 nM; in assay [4], 70.9 nM; in assay [5], 56.4 nM and 69.6 nM and 86.6 nM; in [6] it was 1.25 nM and 1.65 nM and 2.78 nM; in [7], 9.99 nM and 8.95 nM and 8.79 nM. The Kd in assay [8] is 0.19 nM; in [9], 0.183 nM and 0.176 nM and 0.197 nM; in [10] it was 2.94 nM; in assay [11] it was 3.9 nM and 3.21 nM and 1.71 nM. In addition, the koff was 0.00048 s⁻¹ in assay [2]; 0.00049 s⁻¹ in assay [3]; 0.00099 s⁻¹ in [4]; 0.00101 s⁻¹ and 0.000925 s⁻¹ and 0.00104 s⁻¹ in assay [5]; 0.000481 s⁻¹ and 0.000673 s⁻¹ and 0.000777 s⁻¹ in assay [6]; 0.000506 s⁻¹ and 0.000395 s⁻¹ and 0.000556 s⁻¹ in [7]. For the same substance, the koff is 0.00078 s⁻¹ in assay [8]; 0.000504 s⁻¹ and 0.000271 s⁻¹ and 0.000714 s⁻¹ in assay [9]; 0.00101 s⁻¹ in [10]; 0.00136 s⁻¹ and 0.000659 s⁻¹ and 0.00101 s⁻¹ in [11]. For the same substance, the kon in assay [2] is 357000 M⁻¹ s⁻¹; in assay [3], 53000 M⁻¹ s⁻¹; in [4], 14000 M⁻¹ s⁻¹; in assay [5] it was 17900 M⁻¹ s⁻¹ and 13300 M⁻¹ s⁻¹ and 12000 M⁻¹ s⁻¹; in [6], 384000 M⁻¹ s⁻¹ and 407000 M⁻¹ s⁻¹ and 280000 M⁻¹ s⁻¹; in [7] it was 50600 M⁻¹ s⁻¹ and 44200 M⁻¹ s⁻¹ and 63300 M⁻¹ s⁻¹. The kon in [8] is 2.63e+06 M⁻¹ s⁻¹; in assay [9], 2.75e+06 M⁻¹ s⁻¹ and 1.53e+06 M⁻¹ s⁻¹ and 3.62e+06 M⁻¹ s⁻¹; in [10], 381000 M⁻¹ s⁻¹; in assay [11], 348000 M⁻¹ s⁻¹ and 205000 M⁻¹ s⁻¹ and 590000 M⁻¹ s⁻¹.

The values above are taken from publication PMC10349104.
